From US20120276102A1 (Pfizer, published 2012)

T1: human gamma (γ) common chain expressed on CHO cells (human, UniProt P31785 23-369)
T1 construct: whole, on cells; Control protein; also called human IL-2R-γ common subunit; human γ-common
T1 sequence (looked up): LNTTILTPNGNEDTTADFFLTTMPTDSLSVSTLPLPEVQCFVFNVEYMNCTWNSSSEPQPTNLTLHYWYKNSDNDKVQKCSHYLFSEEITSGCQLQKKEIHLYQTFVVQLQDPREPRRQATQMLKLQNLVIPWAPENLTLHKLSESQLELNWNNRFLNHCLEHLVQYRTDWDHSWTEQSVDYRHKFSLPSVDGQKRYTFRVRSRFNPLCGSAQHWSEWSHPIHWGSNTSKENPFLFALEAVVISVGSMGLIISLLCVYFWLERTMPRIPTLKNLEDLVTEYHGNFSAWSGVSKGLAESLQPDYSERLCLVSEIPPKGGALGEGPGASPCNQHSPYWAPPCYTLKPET

T2: human IL-2Rβ (human, UniProt P14784 27-239)
T2 sequence (looked up): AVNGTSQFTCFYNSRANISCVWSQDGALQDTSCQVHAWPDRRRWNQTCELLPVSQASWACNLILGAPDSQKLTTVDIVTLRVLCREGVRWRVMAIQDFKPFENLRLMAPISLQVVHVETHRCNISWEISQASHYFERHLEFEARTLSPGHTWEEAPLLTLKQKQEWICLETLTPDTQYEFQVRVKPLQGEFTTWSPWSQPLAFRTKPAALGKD


Columns and labels:
[1] = target: T1, human gamma (γ) common chain expressed …; experiment: cell-based ELISA on CHO cells transiently expressing human gamma common chain; HRP anti-human IgG, A450
Method in brief: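 Transfection 48 hr pre-assay; block PBS/CaMg/5% milk 1 hr RT; serially diluted IgG conditioned media 1 hr RT; HRP conjugate 1 hr RT; TMB to saturation, stop 0.18 M H₂SO₄.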

[2] = target: T3, cynomolgus monkey IL-21R expressed on cells (cynomolgus monkey, UniProt G7Q0S8 41-559); experiment: cell ELISA, CHO cells
T3 construct: whole, on cells

[3] = target: T4, rat IL-21R expressed on cells (rat); experiment: cell ELISA, CHO cells
T4 construct: whole, on cells

[4] = target: T5, human IL-21R expressed on cells (human, UniProt Q9HBE5 20-538); experiment: cell ELISA, CHO cells
T5 construct: also called human IL-21R-BaF3; human IL-21R-TF1
T5 sequence (Q9HBE5 20-538 limits assumed): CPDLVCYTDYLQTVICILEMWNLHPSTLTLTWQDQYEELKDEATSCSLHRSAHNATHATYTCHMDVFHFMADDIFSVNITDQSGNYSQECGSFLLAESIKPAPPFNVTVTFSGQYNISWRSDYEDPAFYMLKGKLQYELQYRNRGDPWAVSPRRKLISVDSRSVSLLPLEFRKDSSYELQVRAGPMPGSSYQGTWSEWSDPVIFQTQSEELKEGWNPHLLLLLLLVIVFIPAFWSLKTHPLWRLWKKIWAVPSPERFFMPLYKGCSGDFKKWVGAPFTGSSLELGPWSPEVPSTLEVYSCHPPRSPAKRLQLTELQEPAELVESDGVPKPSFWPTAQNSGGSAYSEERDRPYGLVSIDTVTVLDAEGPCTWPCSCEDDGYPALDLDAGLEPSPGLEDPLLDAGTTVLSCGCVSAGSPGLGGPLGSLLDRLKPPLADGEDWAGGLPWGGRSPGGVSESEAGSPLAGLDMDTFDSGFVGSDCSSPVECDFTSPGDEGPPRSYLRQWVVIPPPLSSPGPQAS

[5] = target: T1, human gamma (γ) common chain expressed …; experiment: cell ELISA, CHO cells
[6] = target: T3, cynomolgus monkey IL-21R expressed on …; experiment: cell-based ELISA on CHO cells transiently expressing cynomolgus monkey IL-21R; HRP anti-human IgG, A450
[7] = target: T5, human IL-21R expressed on cells; experiment: cell-based or functional assay
[8] = target: murine IL-21R expressed on cells (murine, UniProt Q9JHX3 20-529); experiment: cell-based or functional assay
Sequence of murine IL-21R expressed on cells (Q9JHX3 20-529 limits assumed): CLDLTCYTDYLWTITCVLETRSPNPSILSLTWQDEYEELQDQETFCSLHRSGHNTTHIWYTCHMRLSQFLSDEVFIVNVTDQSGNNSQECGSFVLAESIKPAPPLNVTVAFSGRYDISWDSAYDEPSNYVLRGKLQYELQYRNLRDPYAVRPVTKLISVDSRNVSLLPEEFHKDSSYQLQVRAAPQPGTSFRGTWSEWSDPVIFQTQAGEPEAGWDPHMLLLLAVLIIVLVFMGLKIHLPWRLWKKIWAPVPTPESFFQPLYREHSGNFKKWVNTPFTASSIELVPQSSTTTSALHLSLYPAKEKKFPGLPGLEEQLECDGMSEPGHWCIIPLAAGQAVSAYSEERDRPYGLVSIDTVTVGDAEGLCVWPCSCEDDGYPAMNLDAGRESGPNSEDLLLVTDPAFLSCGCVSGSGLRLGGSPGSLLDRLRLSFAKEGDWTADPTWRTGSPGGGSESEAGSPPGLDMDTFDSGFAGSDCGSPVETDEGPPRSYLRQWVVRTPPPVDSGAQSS

[9] = target: T6, human IL-13-His/FLAG (human, UniProt P35225 35-146, limits assumed); experiment: BIACORE: antibody captured on anti-human IgG; 50 nM analyte injected
T6 construct: Unrelated His/FLAG-tagged control; also called human IL-13-H/F
T6 sequence (P35225 35-146 limits assumed): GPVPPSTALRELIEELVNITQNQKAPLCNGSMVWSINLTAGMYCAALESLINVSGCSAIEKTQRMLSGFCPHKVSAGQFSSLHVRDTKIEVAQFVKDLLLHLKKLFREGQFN
Experimental: (§1) The specificity of binding of a subset of transiently expressed anti-IL-21R binding proteins (here antibodies) was tested on a BIACORE™ 2000 surface plasmon resonance instrument. Anti-human-IgG, anti-murine immunoglobulin antibodies, and murine IL-21R-H/F were immobilized onto a research-grade carboxymethyl-dextran chip (CM5) using standard amine coupling. The sensor chip surface was activated with EDC/NHS for 7 min at a flow rate of 20 μl/min. The first flow cell was used as reference surface to correct for bulk refractive index, matrix effects, and nonspecific binding. […] Remaining activated groups were blocked with 1.0 M ethanolamine (pH 8.0). The molecular weights of the anti-human IgG and the anti-murine IgG were both 150 kD, and the molecular weight of the IL-21R monomer was 27 kD.
(§2) Conditioned media containing anti-IL-21R antibodies and antibody controls (murine anti-human IL-2Rβ and murine anti-human IL-4R(R&D Systems, Minneapolis, Minn.); human anti-human IL-13 (Wyeth, Cambridge, Mass.)) were diluted in HBS/EP buffer supplemented with 0.2% bovine serum and injected onto all four flow cells of the BIACORE™ chip, capturing 500-700 (RU) of antibody on the species-appropriate capture antibody. Following a 5 sec washing period, 50 nM solutions of a positive control protein (murine IL-21R-H/F), two human proteins related to IL-21R (human IL-2Rβ and human sIL-4R(R&D Systems)), or an unrelated His/FLAG-tagged protein (human IL-13-H/F) were injected over the captured antibodies on the chip. The association and dissociation phases were monitored for 120 and 180 sec, respectively, followed by two 5 μl injections of glycine (pH 1.5) to regenerate a fully active capturing surface. All binding experiments were done at 25° C. in HBS/EP buffer. Blank and buffer effects were subtracted for each sensorgram using double referencing.

[10] = target: T2, human IL-2Rβ; experiment: as above
Experimental: as §1, §2

[11] = target: T7, human soluble IL-4R (human, UniProt P24394 26-232, limits assumed); experiment: as above
T7 construct: also called human sIL-4R
Experimental: as §1, §2

Row | binding result [1] | A450 (13 nM Ab) [2] | A450 (13 nM Ab) [3] | A450 (13 nM Ab) [4] | A450 (13 nM Ab) [5] | EC50 (read off the curve) [6] | Human IL-21R-BaF3 Proliferation IC50 [7] | Human IL-21R-TF1 Proliferation IC50 [7] | Murine IL-21R-BaF3 Proliferation IC50 [8] | binding result [9] | binding result [10] | binding result [11] | Binder
1 | no binding (tested: 40 nM) | 1.31 A450 | 1.03 A450 | 1.31 A450 | 0.112 A450 | ~0.7 nM | 0.75 nM | 3.48 nM | 0.03 nM | no binding (tested: 50 nM) | no binding (tested: 50 nM) | no binding (tested: 50 nM) | AbP (antibody, human IgG1, V domains shown, CDR3 graft, residue limits derived as for m29; also called VHP/VL20; VHPTM/VL20) VH: QVQLQESGPGLVKPSETLSLTCAVSGYSISSGYYWGWIRQPPGKGLEWIGSISHTGNTYYNPPLKSRVTISVDTSKNQFSLKLSSVTAADTAVYYCARGGGISRPEYWGQGTLVTVSS VL: SSELTQDPAVSVALGQTVRITCQGDSLRTYYASWYQQKPGQAPVLVIYGKHKRPSGIPDRFSGSSSGNTASLTITGAQAEDEADYYCVSRSAKGNPHVLFGGGTQLTVL
2 | no binding (tested: 13 nM) |  |  |  |  | ~0.4 nM |  |  |  |  |  |  | parental 18A5 antibody (antibody, V domains shown, also called 18A5 IgG) VH: QVQLQESGPGLVKTSETLSLTCAVSGYSISSGYYWGWIRQPPGKGLEWIGSISHTGNTYYNPPLKSRVTISVDTSKNQFSLKLSSVTAADTAVYYCARGGGISRPEYWGKGTLVTVSS VL: SSELTQDPPVSVALGQTVTLTCQGDSLRTYYASWYQQKSGQAPILLLYGKHKRPSGIPDRFSGSTSGDTASLTITGAQAEDEADYYCNSRDSSGNPHVLFGGGTQLTVL
3 | no binding (tested: 40 nM) | 1.35 A450 | 1.11 A450 | 1.33 A450 | 0.109 A450 | ~1 nM | 0.87 nM | 3.94 nM | 0.302 nM | no binding (tested: 50 nM) | no binding (tested: 50 nM) | no binding (tested: 50 nM) | AbR (antibody, human IgG1, V domains shown, CDR3 graft, residue limits derived as for m29; also called VH3/VL18; VH3DM/VL18) VH: QVQLQESGPGLVKPSETLSLTCAVSGYSISSGYYWGWIRQPPGKGLEWIGSISHTGNTYYNPPLKSRVTISVDTSKNQFSLKLSSVTAADTAVYYCARFMGFGRPEYWGQGTLVTVSS VL: SSELTQDPAVSVALGQTVRITCQGDSLRTYYASWYQQKPGQAPVLVIYGKHKRPSGIPDRFSGSSSGNTASLTITGAQAEDEADYYCVTRSVKGNPHVLFGGGTQLTVL
4 | no binding (tested: 40 nM) | 1.31 A450 | 1.16 A450 | 1.25 A450 | 0.125 A450 | ~0.7 nM | 0.68 nM | 4.62 nM | 0.153 nM | no binding (tested: 50 nM) | no binding (tested: 50 nM) | no binding (tested: 50 nM) | AbQ (antibody, human IgG1, V domains shown, CDR3 graft, residue limits derived as for m29; also called VH3/VL2; VH3DM/VL2) VH: QVQLQESGPGLVKPSETLSLTCAVSGYSISSGYYWGWIRQPPGKGLEWIGSISHTGNTYYNPPLKSRVTISVDTSKNQFSLKLSSVTAADTAVYYCARFMGFGRPEYWGQGTLVTVSS VL: SSELTQDPAVSVALGQTVRITCQGDSLRTYYASWYQQKPGQAPVLVIYGKHKRPSGIPDRFSGSSSGNTASLTITGAQAEDEADYYCVARSVVGNPHVLFGGGTQLTVL
5 | no binding (tested: 40 nM) | 1.31 A450 | 0.927 A450 | 1.29 A450 | 0.104 A450 | ~0.7 nM | 0.73 nM | 3.13 nM | 0.184 nM | no binding (tested: 50 nM) | no binding (tested: 50 nM) | no binding (tested: 50 nM) | AbU (antibody, human IgG1, V domains shown, CDR3 graft, residue limits derived as for m29; also called VHP/VL25; VHPTM/VL25) VH: QVQLQESGPGLVKPSETLSLTCAVSGYSISSGYYWGWIRQPPGKGLEWIGSISHTGNTYYNPPLKSRVTISVDTSKNQFSLKLSSVTAADTAVYYCARGGGISRPEYWGQGTLVTVSS VL: SSELTQDPAVSVALGQTVRITCQGDSLRTYYASWYQQKPGQAPVLVIYGKHKRPSGIPDRFSGSSSGNTASLTITGAQAEDEADYYCTTRSNKGNPHVLFGGGTQLTVL
6 | no binding (tested: 40 nM) | 1.22 A450 | 0.994 A450 | 1.08 A450 | 0.102 A450 | ~0.6 nM | 0.67 nM | 3.26 nM | 0.093 nM | no binding (tested: 50 nM) | no binding (tested: 50 nM) | no binding (tested: 50 nM) | AbT (antibody, human IgG1, V domains shown, CDR3 graft, residue limits derived as for m29; also called VHP/VL9; VHPTM/VL9) VH: QVQLQESGPGLVKPSETLSLTCAVSGYSISSGYYWGWIRQPPGKGLEWIGSISHTGNTYYNPPLKSRVTISVDTSKNQFSLKLSSVTAADTAVYYCARGGGISRPEYWGQGTLVTVSS VL: SSELTQDPAVSVALGQTVRITCQGDSLRTYYASWYQQKPGQAPVLVIYGKHKRPSGIPDRFSGSSSGNTASLTITGAQAEDEADYYCVARSNKGNPHVLFGGGTQLTVL
7 | no binding (tested: 40 nM) | 1.22 A450 | 1.17 A450 | 1.02 A450 | 0.118 A450 | ~0.5 nM | 1.53 nM | 5 nM | 0.04 nM | no binding (tested: 50 nM) | no binding (tested: 50 nM) | no binding (tested: 50 nM) | AbS (antibody, V domains shown, CDR3 graft, residue limits derived as for m29; also called VHP/VL6; VHPTM/VL6) VH: QVQLQESGPGLVKPSETLSLTCAVSGYSISSGYYWGWIRQPPGKGLEWIGSISHTGNTYYNPPLKSRVTISVDTSKNQFSLKLSSVTAADTAVYYCARGGGISRPEYWGQGTLVTVSS VL: SSELTQDPAVSVALGQTVRITCQGDSLRTYYASWYQQKPGQAPVLVIYGKHKRPSGIPDRFSGSSSGNTASLTITGAQAEDEADYYCMSRSIWGNPHVLFGGGTQLTVL
